According to patent US20250163182A1:

Key:
[1] = molecular target: human ENPP3 on cells (human) (UniProt O14638); experiment: flow cytometry receptor quantification on HUH-7 cells
[2] = molecular target: human ENPP3 on cells (human) (UniProt O14638); experiment: flow cytometry receptor quantification on KMRC20 cells
[3] = molecular target: human ENPP3 on cells (human) (UniProt O14638); experiment: flow cytometry receptor quantification on ACHN cells
[4] = molecular target: human ENPP3 on cells (human) (UniProt O14638); experiment: flow cytometry receptor quantification on CHO-K1 ENPP3-OE cells; bar above the ULOD line
[5] = molecular target: human ENPP3 on cells (human) (UniProt O14638); experiment: flow cytometry receptor quantification on 786-O cells
[6] = molecular target: human ENPP3 on cells (human) (UniProt O14638); experiment: flow cytometry receptor quantification on TUHR4TKB cells (Table 18 of the text prints this value under a second TUHR10TKB row)
[7] = molecular target: human ENPP3 on cells (human) (UniProt O14638); experiment: flow cytometry receptor quantification on Hep3B cells

Sequence of human ENPP3 on cells (human) (O14638 whole entry): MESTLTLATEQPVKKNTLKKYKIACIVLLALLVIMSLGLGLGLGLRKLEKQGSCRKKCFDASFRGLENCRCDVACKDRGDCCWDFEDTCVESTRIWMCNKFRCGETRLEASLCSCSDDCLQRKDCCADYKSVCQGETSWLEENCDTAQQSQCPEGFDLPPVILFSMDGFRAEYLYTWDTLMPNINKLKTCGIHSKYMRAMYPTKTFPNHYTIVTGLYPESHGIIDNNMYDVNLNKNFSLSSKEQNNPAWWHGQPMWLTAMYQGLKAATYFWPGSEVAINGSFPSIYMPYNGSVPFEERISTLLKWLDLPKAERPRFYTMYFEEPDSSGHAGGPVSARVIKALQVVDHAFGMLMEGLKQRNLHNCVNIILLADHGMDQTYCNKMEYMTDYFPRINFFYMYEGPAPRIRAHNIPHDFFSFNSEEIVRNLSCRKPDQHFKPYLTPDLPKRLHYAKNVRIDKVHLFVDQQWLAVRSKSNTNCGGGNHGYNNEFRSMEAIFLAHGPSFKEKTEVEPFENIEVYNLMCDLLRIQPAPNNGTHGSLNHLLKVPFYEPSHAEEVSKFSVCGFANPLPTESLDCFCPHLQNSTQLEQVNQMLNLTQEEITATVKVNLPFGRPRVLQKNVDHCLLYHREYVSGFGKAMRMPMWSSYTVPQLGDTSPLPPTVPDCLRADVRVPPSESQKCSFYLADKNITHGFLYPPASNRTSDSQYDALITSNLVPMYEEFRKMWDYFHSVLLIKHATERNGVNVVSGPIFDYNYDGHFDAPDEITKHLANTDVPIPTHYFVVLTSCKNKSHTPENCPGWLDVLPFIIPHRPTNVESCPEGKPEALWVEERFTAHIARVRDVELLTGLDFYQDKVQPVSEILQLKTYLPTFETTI

- ENPP3 Receptor Density - Antibody Binding capacity (ABC) [1]: 7000 ABC
- ENPP3 Receptor Density - Antibody Binding capacity (ABC) [2]: 21000 ABC
- ENPP3 Receptor Density - Antibody Binding capacity (ABC) [3]: 5000 ABC
- ENPP3 Receptor Density - Antibody Binding capacity (ABC) [4]: > 470000 ABC
- ENPP3 Receptor Density - Antibody Binding capacity (ABC) [5]: 4000 ABC
- ENPP3 Receptor Density - Antibody Binding capacity (ABC) [6]: 61000 ABC
- ENPP3 Receptor Density - Antibody Binding capacity (ABC) [7]: 13000 ABC
Substance: commercial ENPP3 antibody clone NP4D6
